Results as given in US20120237496.

Tests used:
[1] = test system: GIP (fluorescein/Lys-biotin labelled synthetic peptide)
[2] = test system: Angiotensin (fluorescein/Lys-biotin labelled synthetic peptide)
[3] = test system: Endothelin-1 (average of the 1a and 1b isoforms)
[4] = test system: GLP-1 (fluorescein/Lys-biotin labelled synthetic peptide)
[5] = test system: Glucagon (fluorescein/Lys-biotin labelled synthetic peptide)
[6] = test system: A-beta 1-40 (fluorescein/Lys-biotin labelled synthetic peptide)
Chain of A-beta 1-40 (fluorescein/Lys-biotin labelled synthetic peptide) (peptide, as listed by the source): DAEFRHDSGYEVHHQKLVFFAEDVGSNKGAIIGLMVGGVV

[7] = test system: Neurotensin (fluorescein/Lys-biotin labelled synthetic peptide)
[8] = test system: T1, ANP (fluorescein/Lys-biotin labelled synthetic peptide)
T1 sequence: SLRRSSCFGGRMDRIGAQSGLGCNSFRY

[9] = test system: T2, Somatostatin 1-28 (fluorescein/Lys-biotin labelled synthetic peptide)
T2 sequence: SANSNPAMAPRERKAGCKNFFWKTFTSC

[10] = test system: Bradykinin (fluorescein/Lys-biotin labelled synthetic peptide)

Chain of GLP-1 (fluorescein/Lys-biotin labelled synthetic peptide) (chain, as listed by the source): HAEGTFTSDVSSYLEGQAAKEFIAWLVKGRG
Chain of Glucagon (fluorescein/Lys-biotin labelled synthetic peptide) (chain, as listed by the source): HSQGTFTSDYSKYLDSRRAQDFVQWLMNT
Chain of GIP (fluorescein/Lys-biotin labelled synthetic peptide) (chain, as listed by the source): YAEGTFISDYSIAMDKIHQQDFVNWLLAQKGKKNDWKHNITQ

Question: How did the kcat/KM [1] turn out when HSA-Nep-G399V/G714K was run?
Answer: 130 M⁻¹ s⁻¹

Question: What about the ratio of kcat/KM, mutant vs wild type [1] of the same substance?
Answer: 0.28

Question: And the kcat/KM [2]?
Answer: 14000 M⁻¹ s⁻¹

Question: And the ratio of kcat/KM, mutant vs wild type [2]?
Answer: 0.012

Question: What about the kcat/KM [3] of the same substance?
Answer: 62000 M⁻¹ s⁻¹

Question: What about the ratio of kcat/KM, mutant vs wild type [3] of the same substance?
Answer: 0.21

Question: And the kcat/KM [4]?
Answer: 36000 M⁻¹ s⁻¹

Question: And the ratio of kcat/KM, mutant vs wild type [4]?
Answer: 0.25

Question: And the kcat/KM [5]?
Answer: 88000 M⁻¹ s⁻¹

Question: And the ratio of kcat/KM, mutant vs wild type [5]?
Answer: 0.35

Question: And the kcat/KM [6]?
Answer: 55000 M⁻¹ s⁻¹

Question: What about the ratio of kcat/KM, mutant vs wild type [6] of the same substance?
Answer: 4.2

Question: What about the kcat/KM [7] of the same substance?
Answer: 2600 M⁻¹ s⁻¹

Question: What about the ratio of kcat/KM, mutant vs wild type [7] of the same substance?
Answer: 0.004

Question: And the kcat/KM [8]?
Answer: 42000 M⁻¹ s⁻¹

Question: And the ratio of kcat/KM, mutant vs wild type [8]?
Answer: 0.15

Question: What about the kcat/KM [9] of the same substance?
Answer: 3000 M⁻¹ s⁻¹

Question: And the ratio of kcat/KM, mutant vs wild type [9]?
Answer: 0.0054

Question: What about the kcat/KM [10] of the same substance?
Answer: 85 M⁻¹ s⁻¹

Question: And the ratio of kcat/KM, mutant vs wild type [10]?
Answer: 0.00017
